Measurements published in patent US20210403565A1 (BIOATLA, published 2021).
Changes are numbered by the printed parent chain.

T1: human CTLA4 expressed on the cell surface of CHO cells (human, UniProt P16410 36-223)
T1 construct: whole, on cells; also called CHO-huCTLA4; huCTLA4
T1 sequence (looked up): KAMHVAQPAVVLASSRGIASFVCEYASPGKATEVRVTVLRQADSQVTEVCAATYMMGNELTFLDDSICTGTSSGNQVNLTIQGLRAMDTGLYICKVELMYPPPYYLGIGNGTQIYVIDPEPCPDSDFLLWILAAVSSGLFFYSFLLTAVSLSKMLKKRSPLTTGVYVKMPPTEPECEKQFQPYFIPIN

T2: recombinant human CTLA4 extracellular domain (human, UniProt P16410 36-161)
T2 construct: extracellular domain; also called huCTLA-4
T2 sequence (looked up): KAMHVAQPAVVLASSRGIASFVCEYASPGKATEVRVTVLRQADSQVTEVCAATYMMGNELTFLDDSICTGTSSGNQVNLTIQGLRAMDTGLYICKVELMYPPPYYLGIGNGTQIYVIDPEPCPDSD

T3: recombinant cynomolgus CTLA4 extracellular domain (cynomolgus, UniProt G7PL88 36-161)
T3 construct: extracellular domain; also called cynoCTLA-4; cynoCTLA4
T3 sequence: T2 sequence (looked up) with S14N, I18T, L106M

B1: BA-087-05-19 (antibody, V domains shown)
VH: EVQLVESGGGLVQPGGSLRLSCAASGFTFSHYTMHWVRQAPGKGLEWVSFISYDGNNKYYADSVKGRFTISRDNSKNTLYLQMNSLRAEDTAVYYCARTGWLGPFDYWGQGTLVTVSS
VL: AIQLTQSPSSLSASVGDRVTITCRASQYVGSSYLAWYLQKPGQSPQLLIYGAFSRATGIPARFSGSGSGTEFTLTISSLQSEDFAVYYCQQDGSSPWTFGQGTKVEIK
notes: Detected with anti-human IgG and a molecular weight of 146 kDa was used in SPR, so it was tested as a whole IgG; also called BA-087-05-019; BA-087-05-19 (# 6972)
B2: BA-087-08-32 (antibody, V domains shown)
VH: EVQLVQSGAEVKKPGATVKISCKVSGFTFSHYTMHWIRQSPSRGLEWLGFISYDGNYKYYADSVKGRFTISRDNAKNSLYLQMNSLRAEDTAVYYCARTGWLGPFDYWGQGTLVTVSS
VL: EIVMTQSPATLSVSPGERATLSCRASQSVGSSYLAWYQQKPGKAPKLLIYGAFSRATGVPSRFSGSGSGTDFTLTISSLQPEDFATYYCQQDGSSPWTFGQGTKVEIK
notes: Detected with anti-human IgG and a molecular weight of 146 kDa was used in SPR, so it was tested as a whole IgG; also called BA-087-08-032; BA-087-08-32 (# 6978)

Legend:
[1] = target: T1, human CTLA4 expressed on the cell …; experiment: FACS competition on CHO-huCTLA4: antibody titrated against a fixed concentration of hB7-2 (hCD86), bound hB7-2 detected, % competition, plateaus about 48 to 57 %; pH 6.0 per the text; unit from the axis CTLA4 Ab concentration Log(ng/mL)
[2] = target: T2, recombinant human CTLA4 extracellular …; experiment: SPR, human CTLA4 ECD immobilised, pH 6.0, run 2
Method: (§1) The CTLA4 extracellular domain (human or cynomolgus) was immobilized on the surface of a sensor chip. […] The binding kinetics were calculated using a 1:1 Longmuir model built into the analysis software.

[3] = target: T3, recombinant cynomolgus CTLA4 …; experiment: ELISA, immobilised cynoCTLA-4, pH 6.0, Jun. 19, 2017; ELISA, pH 6.0, Jun. 19, 2017
[4] = target: T3, recombinant cynomolgus CTLA4 …; experiment: SPR, cynomolgus CTLA4 ECD immobilised, pH 6.0, equilibrium fit; SPR, pH 6.0
Method: as §1
The KD was calculated by plotting the maximum SPR signal at each concentration against the antibody concentration. Experiments were run in triplicate at each pH.

[5] = target: T2, recombinant human CTLA4 extracellular …; experiment: SPR, human CTLA4 ECD immobilised, pH 6.0, run 1
Method: as §1

[6] = target: T3, recombinant cynomolgus CTLA4 …; experiment: ELISA, immobilised cynoCTLA-4, pH 6.0, Jun. 27, 2017; ELISA, pH 6.0, Jun. 27, 2017
[7] = target: T2, recombinant human CTLA4 extracellular …; experiment: ELISA, immobilised huCTLA-4, pH 6.0, Jun. 27, 2017
Method: (§2) EC₅₀ values at pH 6.0 for binding to human CTLA4 were calculated using the nonlinear fit model (variable slope, four parameters) of GraphPad Prism version 7.03.

[8] = target: T1, human CTLA4 expressed on the cell …; experiment: FACS competition on CHO-huCTLA4: antibody titrated against a fixed concentration of hB7-1 (hCD80), bound hB7-1 detected, % competition, plateau about 97 %; pH 6.0 per the text; unit from the axis CTLA4 Ab concentration Log(ng/mL)
[9] = target: T2, recombinant human CTLA4 extracellular …; experiment: SPR, human CTLA4 ECD immobilised
Method: as §1

[10] = target: T2, recombinant human CTLA4 extracellular …; experiment: ELISA, immobilised huCTLA-4, pH 6.0, mean +/- SD
Method: as §2

[11] = target: T2, recombinant human CTLA4 extracellular …; experiment: SPR, human CTLA4 ECD immobilised, pH 7.4, run 2
Method: as §1

[12] = target: T2, recombinant human CTLA4 extracellular …; experiment: SPR, human CTLA4 ECD immobilised, pH 6.0, run 3
Method: as §1

[13] = target: T3, recombinant cynomolgus CTLA4 …; experiment: ELISA, immobilised cynoCTLA-4, pH 6.0, mean +/- SD; ELISA, pH 6.0, mean of the two runs
[14] = target: T2, recombinant human CTLA4 extracellular …; experiment: SPR, human CTLA4 ECD immobilised, pH 7.4, run 3
Method: as §1

[15] = target: T1, human CTLA4 expressed on the cell …; experiment: FACS on CHO-huCTLA4 cells, pH 6.0, mean
Method: The amount of antibodies bound on the cells was quantified using anti-human IgG antibody conjugated to fluorophores. EC₅₀ values at pH 6.0 and 7.4 for binding to cells were calculated using the nonlinear fit (variable slope, four parameters) model built into GraphPad Prism software (version 7.03). The expression levels of human CTLA4 or cynomolgus CTLA4 on the surface of the CHO cells were determined using a BD QuantiBRITE™ PE kit.

[16] = target: T2, recombinant human CTLA4 extracellular …; experiment: ELISA, immobilised huCTLA-4, pH 6.0, Jun. 29, 2017
Method: as §2

[17] = target: T2, recombinant human CTLA4 extracellular …; experiment: SPR, human CTLA4 ECD immobilised, pH 7.4, run 1
Method: as §1

Binder	EC50 [1] [µg/mL]	Kd [2] [nM]	koff [2] [s⁻¹]	kon [2] [M⁻¹ s⁻¹]	EC50 [3] [µg/mL]	Kd [4] [nM]	Kd [5] [nM]	koff [5] [s⁻¹]	kon [5] [M⁻¹ s⁻¹]	EC50 [6] [µg/mL]	EC50 [7] [µg/mL]	EC50 [8] [µg/mL]	factor by which the binding activity drops from pH 6.0 to pH 7.4 [9] [fold]	EC50 [10] [µg/mL]	Kd [11] [nM]	Kd [12] [nM]	koff [12] [s⁻¹]	kon [12] [M⁻¹ s⁻¹]	EC50 [13] [µg/mL]	Kd [14] [nM]	other results
B1	0.592	0.481	0.000604	1.26e+06	0.0159	1.96	0.472	0.000631	1.34e+06	0.0397	0.00959	0.745	~2	0.00818	0.781	0.543	0.000598	1.1e+06	0.0276	1.12	koff [11]: 0.000669 s⁻¹; kon [11]: 857000 M⁻¹ s⁻¹; koff [14]: 0.000943 s⁻¹; kon [14]: 844000 M⁻¹ s⁻¹; EC50 [15]: 0.35 µg/mL; EC50 [16]: 0.00659 µg/mL; Kd [17]: 1.39 nM; koff [17]: 0.00126 s⁻¹; kon [17]: 906000 M⁻¹ s⁻¹
B2	0.456	0.463	0.00154	3.32e+06	0.259	5.95	0.365	0.0012	3.29e+06	0.292	0.0146	0.567	~100	0.00978	14.9	0.524	0.00214	4.08e+06	0.276	68.3	koff [14]: 0.0132 s⁻¹; kon [14]: 194000 M⁻¹ s⁻¹; EC50 [15]: 0.243 µg/mL; EC50 [16]: 0.00857 µg/mL; Kd [17]: 52.5 nM; koff [17]: 0.0284 s⁻¹
